{"source": "patent US8034572B2", "about": "“Receptor for GDNF family ligands” (priority 2006, dated 2011)", "molecules": {"B1": {"name": "GDNF: Glial cell line-derived neurotrophic factor, secreted growth factor, GDNF family ligand (protein)", "chain": "SPDKQMAVLPRRERNRQAAAANPENSRGKGRRGQRGKNRGCVLTAIHLNVTDLGLGYETKEELIFRYCSGSCDAAETTYDKILKNLSRNRRLVSDKVGQACCRPIAFDDDLSFLDDNLVYHILRKHSAKRCGCI"}}, "key": {"[1]": {"tested_on": "E15 mouse cortical neurons", "assay": "Cortical neurons migration assay (transfilter)", "type": "cell-based", "details": "16 hours", "procedure": "Cortical lobes from E15 mouse brains were dissected under a stereomicroscope and dissociated using a 20 G needle and a syringe in DMEM containing 10% FCS. The cortical preparation was spun down at 1000 rpm for 5 min and the pellet was washed with culture medium containing serum. The pellet was carefully resuspended and the preparation was allowed to sediment for five more minutes before the cleared supernatant was collected. The cells in the supernatant were allowed to recover in serum-containing DMEM for 30-60 min. Recovered cells were washed once with the assay medium (DMEM with 10 mg/ml BSA, L-glutamine and antibiotics) and resuspended in the same medium.\nTranswell filters (Costar) with 12-μm pore size or polycarbonate filters saturated with 100 μg/ml poly-L-lysine were coated with GDNF or ΔN-GDNF in 1 μM, 10 μM and 100 μM concentrations overnight at 4° C. and equilibrated with assay medium 30 min in +37° C. incubator prior to use. The spontaneous and random migratory activity of neural cells was controlled with uncoated filters.\nEmbryonic cortical cells were plated on the filters at 150000 cells per filter and left to migrate for 16 hours. […] The number of cells that had migrated to the coated surface of the filters was calculated using the inverted light microscope Olympus IX71."}, "[2]": {"tested_on": "SHEP cells", "assay": "SHEP cell adhesion and spreading assay on immobilized proteins", "type": "cell-based, human", "details": "protein immobilized on plastic microplate", "procedure": "Cell adhesion assays were essentially performed as described elsewhere (Weinacker et al., 1994). To prepare protein-coated surfaces the protein of interest (10 μg/ml in PBS) was applied to 96-well ELISA (Greiner) plates or to glass cover slips for 12-18 hours at +4° C. After incubation, the surfaces were washed with PBS and blocked with 1% globulin-free BSA for two hours. Some GDNF coated surfaces were incubated with 20 μg/ml of G-90 (Amgen) GDNF function-blocking antibodies (Xu et al., 1998) for 2 hours at room temperature.\nSubconfluent SHEP cells were harvested in PBS supplemented with 10 mM EDTA for 5 min at 37° C. Cells were washed with incubation buffer (RPMI 1640, 0.2% BSA, 15 mM HEPES pH 7.2) and 10000-40000 cells/well plated on the protein coated surface. Plates were centrifuged for 5 min at 10 g and incubated for one hour at 37° C. in 5% CO2. After incubation cells were washed with PBS, fixed with methanol supplemented with crystal violet for 15 min at room temperature and washed again with PBS. The remaining cells were counted using a Leica DMIRB inverted microscope with 10× objective in 5 fields per well.\nSome cells were pretreated with heparinase III, PI-PLC (see above), 0.3 U/ml chodroitinase ABC for one hour at 37° C., 5% CO2, or with 20 μg/ml of NCAM blocking antibodies (AB5032, Chemicon Inc.) for 15-30 min on ice.\nAfter one hour of incubation in serum-free medium unattached cells were removed by washing. The remaining cells were stained and counted on Leica DMIRB inverted microscope with a 10× objective in 5 fields per well and the resulting cell number was calculated for the whole well.\nLive SHEP cells spreading on immobilized GDNF were imaged for 20 minutes using the Till imaging system with an Imago-QE digital camera (Till Photonics) equipped with heating (+37° C.) and CO2 supply (5%) chambers."}}}
{"molecule": "B1", "values": [{"measurement": "migration of syndecan-3-deficient embryonic cortical neurons", "setting": "[1]; filters coated with GDNF", "value": "strongly impaired"}, {"measurement": "migration of wild type embryonic cortical cells", "setting": "[1]; filters coated with protein", "value": "stimulated massive migration"}, {"measurement": "adherence and spreading of SHEP cells on immobilized protein", "setting": "[2]", "value": "induced adherence and spreading"}]}
